# Measurements: patent publication US20260250737A1, “Engineered Luciferases and Luciferin Substrates” (Monod Bio, Inc., priority 2023, published 2026)
# Residue numbers refer to the chain shown, from its start. Read-outs that look alike come from different tables or passages of the source.
# T1: LgLux_4039
# T1 chain: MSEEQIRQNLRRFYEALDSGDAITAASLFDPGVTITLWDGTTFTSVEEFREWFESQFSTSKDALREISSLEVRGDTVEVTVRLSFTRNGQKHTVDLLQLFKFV
# T2: MBIO-5339
# T2 chain: T1 chain with R11L, I23V, S45T
# T3: MBIO-5336
# T3 chain: T1 chain with R11L
# T4: MBIO-5337
# T4 chain: T1 chain with R11L, D30N
# T5: MBIO-5338
# T5 chain: T1 chain with T41A, H92Q
# T6: MBIO-5335
# T6 chain: T1 chain with S2C, R11L, V46I, E54D
# T7: LgLux_4039 variant S19C (SEQ ID NO:2805)
# T7 chain: T1 chain with S19C
# T8: MBIO-5340
# T8 chain: T1 chain with S2T, I6L, R11L, E48K
# T9: MBIO-5342
# T9 chain: T1 chain with E54G, S55T, R87S
# T10: MBIO-5341
# T10 chain: T1 chain with P31S
# B1: SEQ ID NO 2227: circularly permuted protein from MBIO-148, inpaint length 32 (protein)
# chain: GQKHVVVLVHTFRFRGNRVTEVEVEIIPCPSLDEASIAAAIAEAEALAAERLAELGAPPPSISEEQIRQFLRRFYEALDSGDADTAASLFHPGVTIHLWDGVTFTSREEFREWFERLFSTSKDAWREIVSLRVVGDTVVVVVVLHFTLN
# B2: SEQ ID NO 2236: circularly permuted protein from MBIO-148, inpaint length 32 (protein)
# chain: GQKHVVVLVHTFRFRGNRVTEVRVEIIPAPSLDEESIEARVAEARRLAEERLAELGDPPPSISEEQIRQFLRRFYEALDSGDADTAASLFHPGVTIHLWDGVTFTSREEFREWFERLFSTSKDAWREIVELRVRGDTVVVVVVLHFTLN
# How the values were obtained:
# LuxSit = format: biochemical; settings: inclusion in assay buffer at pH8
# Method: Assay buffers that increase and stabilize the signal output of luciferase assay were tested. Inclusion of Imidazole increased the brightness of LuxSit at pH8.
# In-well concentrations were 185 pM of enzyme and 10 μM DTZ. […] In-well concentrations of DTZ was 10 μM.
# [1] = Luciferase activity of circularly permuted LuxSit-i variants; format: biochemical; settings: circularly permuted proteins; 5 nM protein, 10 μM DTZ
# Method: FIG. 6A provides kinetic profile over one hour of circularly permuted LuxSit-i variants. Variants were diluted in PBS and combined 1:1 with DTZ substrate, resulting in final in-well concentrations of 5 nM protein/variant and 10 μM DTZ.
# Variants were diluted in PBS and combined 1:1 with DTZ substrate, resulting in final in-well concentrations of 5 nM protein and 10 μM DTZ.
# LgLux_4039 [2] = target: T1, LgLux_4039; experiment: cell-based or functional assay
# MBIO-5339 = target: T2, MBIO-5339; experiment: cell-based or functional assay
# MBIO-5336 = target: T3, MBIO-5336; experiment: cell-based or functional assay
# MBIO-5337 = target: T4, MBIO-5337; experiment: cell-based or functional assay
# MBIO-5338 = target: T5, MBIO-5338; experiment: cell-based or functional assay
# MBIO-5335 = target: T6, MBIO-5335; experiment: cell-based or functional assay
# [3] = target: T7, LgLux_4039 variant S19C (SEQ ID NO:2805); experiment: cell-based or functional assay
# MBIO-5340 = target: T8, MBIO-5340; experiment: cell-based or functional assay
# MBIO-5342 = target: T9, MBIO-5342; experiment: cell-based or functional assay
# MBIO-5341 = target: T10, MBIO-5341; experiment: cell-based or functional assay
# LgLux_4039 [4] = target: T1, LgLux_4039; experiment: cell-based or functional assay
molecule,measurement,setting,value
c1c[nH]cn1 [Imidazole],brightness of LuxSit,LuxSit,increased
B1,luciferase activity compared to SEQ ID NO:2600,[1],similar
B2,luciferase activity compared to SEQ ID NO:2600,[1],similar
RVVAVRVYVNPTG [SmLux_4039],Baseline Signal (Normalized by expression),LgLux_4039 [2],123000
same,Fold change upon Rap addition,LgLux_4039 [2],1.5 fold
same,Baseline Signal (Normalized by expression),MBIO-5339,28300
same,Fold change upon Rap addition,MBIO-5339,1.9 fold
same,Baseline Signal (Normalized by expression),MBIO-5336,16400
same,Fold change upon Rap addition,MBIO-5336,2.1 fold
same,Baseline Signal (Normalized by expression),MBIO-5337,14900
same,Fold change upon Rap addition,MBIO-5337,2.1 fold
same,Baseline Signal (Normalized by expression),MBIO-5338,18900
same,Fold change upon Rap addition,MBIO-5338,2.2 fold
same,Baseline Signal (Normalized by expression),MBIO-5335,23800
same,Fold change upon Rap addition,MBIO-5335,1.9 fold
same,Baseline Signal (Normalized by expression),[3],3670
same,Fold change upon Rap addition,[3],2 fold
same,Baseline Signal (Normalized by expression),MBIO-5340,6670
same,Fold change upon Rap addition,MBIO-5340,2.2 fold
same,Baseline Signal (Normalized by expression),MBIO-5342,3360
same,Fold change upon Rap addition,MBIO-5342,2 fold
same,Baseline Signal (Normalized by expression),MBIO-5341,10400
same,Fold change upon Rap addition,MBIO-5341,2.2 fold
same,Baseline Signal (Normalized by expression),LgLux_4039 [4],22100
same,Fold change upon Rap addition,LgLux_4039 [4],1.9 fold
